Reference: article PMC11746154, “Cryo-EM structures of the Spo11 core complex bound to DNA” (Nature Structural & Molecular Biology, 2023)

T1: Spo11 (subunit of the purified S. cerevisiae Spo11 core complex) (S. cerevisiae, UniProt P23179 1-392)
T1 construct: Spo11, S. cerevisiae
T1 sequence: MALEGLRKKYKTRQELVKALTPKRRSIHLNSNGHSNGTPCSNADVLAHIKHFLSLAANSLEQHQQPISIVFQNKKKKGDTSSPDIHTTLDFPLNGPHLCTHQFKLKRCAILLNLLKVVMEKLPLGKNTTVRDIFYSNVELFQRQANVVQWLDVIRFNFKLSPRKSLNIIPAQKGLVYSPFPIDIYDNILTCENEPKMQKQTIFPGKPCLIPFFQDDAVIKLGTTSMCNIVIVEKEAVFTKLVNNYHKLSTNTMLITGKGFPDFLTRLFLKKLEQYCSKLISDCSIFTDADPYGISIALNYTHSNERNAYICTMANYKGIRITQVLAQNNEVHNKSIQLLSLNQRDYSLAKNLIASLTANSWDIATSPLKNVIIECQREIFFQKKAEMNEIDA

B1: Rec102 (subunit of the purified S. cerevisiae Spo11 core complex) (natural protein)
chain: MARDITFLTVFLESCGAVNNDEAGKLLSAWTSTVRIEGPESTDSNSLYIPLLPPGMLKIKLNFKMNDRLVTEEQELFTKLREIVGSSIRFWEEQLFYQVQDVSTIENHVILSLKCTILTDAQISTFISKPRELHTHAKGYPEIYYLSELSTTVNFFSKEGNYVEISQVIPHFNEYFSSLIVSQLEFEYPMVFSMISRLRLKWQQSSLAPISYALTSNSVLLPIMLNMIAQDKSSTTAYQILCRRRGPPIQNFQIFSLPAVTYNK
notes: Rec102, S. cerevisiae
B2: Rec104 (subunit of the purified S. cerevisiae Spo11 core complex) (natural protein)
chain: MSIEEEDTNKITCTQDFLHQYFVTERVSIQFGLNNKTVKRINKDEFDKAVNCIMSWTNYPKPGLKRTASTYLLSNSFKKSATVSLPFILGDPVCMPKRVESNNNDTCLLYSDTLYDDPLIQRNDQAGDEIEDEFSFTLLRSEVNEIRPISSSSTAQILQSDYSALMYERQASNGSIFQFSSP
notes: Rec104, S. cerevisiae; 182 residues as printed, of which only 9-58 are visible in the structure
B3: Ski8 (subunit of the purified S. cerevisiae Spo11 core complex) (natural protein)
chain: MSKVFIATANAGKAHDADIFSVSACNSFTVSCSGDGYLKVWDNKLLDNENPKDKSYSHFVHKSGLHHVDVLQAIERDAFELCLVATTSFSGDLLFYRITREDETKKVIFEKLDLLDSDMKKHSFWALKWGASNDRLLSHRLVATDVKGTTYIWKFHPFADESNSLTLNWSPTLELQGTVESPMTPSQFATSVDISERGLIATGFNNGTVQISELSTLRPLYNFESQHSMINNSNSIRSVKFSPQGSLLAIAHDSNSFGCITLYETEFGERIGSLSVPTHSSQASLGEFAHSSWVMSLSFNDSGETLCSAGWDGKLRFWDVKTKERITTLNMHCDDIEIEEDILAVDEHGDSLAEPGVFDVKFLKKGWRSGMGADLNESLCCVCLDRSIRWFREAGGK
notes: Ski8, S. cerevisiae

Assays:
[1] = target: T1, Spo11 (subunit of the purified S. …); test: cryo-EM structure; core complex (subunits co-expressed and co-purified, ~0.2 mg/ml) incubated with hairpin DNA (3.7 Å) or gapped DNA (3.3 Å) at 1:2 protein:DNA in 25 mM HEPES-NaOH pH 7.5, 150 mM NaCl, 5 mM MgCl2, 2 mM DTT, 2% glycerol, 1 h on ice; conditions: both partners purified
[2] = target: B1; test: as above; conditions: both partners purified

stoichiometry N [1]	stoichiometry N [2]	Binder
1		B1
1	1	B2
1		B3
